Data as given in patent US20200263158.

Experiments:
[1] = tested on: blue casein (zymogram gel substrate)
[2] = target: T1, tau 4R2N peptide (amino acids 335-353)
T1 chain: GQVEVKSEKLDFKDRVQSK

[3] = target: T2, tau FRET peptide OP-002, MCA-GGQVEVKSE{Lys(DNP)}
T2 chain: GGQVEVKSE

recombinant human tau 4R2N (full-length tau protein)
autoproteolysis, N-terminal Edman sequencing of fragment F3: The N-terminal sequence of fragment F3 was determined to be SEKLDF corresponding to amino acids 341-346 of Tau 4R2N | autoproteolysis, N-terminal Edman sequencing of fragments 1-4: The N-terminal sequence of the four fragments was the same: SKDGTG | zymogram, clearing of blue casein [1]: tau had the ability to cut the casein protein substrate in the zymogram

B1: TP-99 (Tau 4R2N 241-340) (protein)
chain: MRLQTAPVPMPDLKNVKSKIGSTENLKHQPGGGKVQIINKKLDLSNVQSKCGSKDNIKHVPGGGSVQIVYKPVDLSKVTSKCGSLGNIHHKPGGGQVEVK
cleavage of peptide substrate, reverse-phase HPLC [2]: intact peptide which is greatly diminished in the upper trace and replaced with two smaller peaks F1 and F2 that represent fragments generated by TP-99

B2: TP-210 (Tau 4R2N 131-340) (protein)
chain: MSKDGTGSDDKKAKGADGKTKIATPRGAAPPGQKGQANATRIPAKTPPAPKTPPSSGEPPKSGDRSGYSSPGSPGTPGSRSRTPSLPTPPTREPKKVAVVRTPPKSPSSAKSRLQTAPVPMPDLKNVKSKIGSTENLKHQPGGGKVQIINKKLDLSNVQSKCGSKDNIKHVPGGGSVQIVYKPVDLSKVTSKCGSLGNIHHKPGGGQVEVK
cleavage of peptide substrate, reverse-phase HPLC [2]: intact peptide was greatly diminished in the upper trace and replaced with two smaller peaks F1 and F2 that represent fragments generated by TP-210

B3: Tau 4R2N 260-340 (TP-81) (protein)
chain: MIGSTENLKHQPGGGKVQIINKKLDLSNVQSKCGSKDNIKHVPGGGSVQIVYKPVDLSKVTSKCGSLGNIHHKPGGGQVEVK
fluorescence of FRET peptide, plate reader [3]: Tau 4R2N 260-340 cuts tau FRET peptide
